From patent publication US20260250410A1 (SICHUAN HUIYU PHARMACEUTICAL, published 2026) come the findings set out here.

Numbering of substitutions follows the chain as printed.

For orientation: EC50 means the concentration needed to bring the measured effect to its halfway point. The low end stands for an effect from little substance, the high end for a need for much substance. In general, Kd refers to the equilibrium constant for the complex coming apart.

In assay [1] the target is T1, human CDCP1 on tumor cells (human, UniProt Q9H5V8 30-836).
T1 construct: whole, on cells; cell line is named under assay or readout
T1 sequence (looked up): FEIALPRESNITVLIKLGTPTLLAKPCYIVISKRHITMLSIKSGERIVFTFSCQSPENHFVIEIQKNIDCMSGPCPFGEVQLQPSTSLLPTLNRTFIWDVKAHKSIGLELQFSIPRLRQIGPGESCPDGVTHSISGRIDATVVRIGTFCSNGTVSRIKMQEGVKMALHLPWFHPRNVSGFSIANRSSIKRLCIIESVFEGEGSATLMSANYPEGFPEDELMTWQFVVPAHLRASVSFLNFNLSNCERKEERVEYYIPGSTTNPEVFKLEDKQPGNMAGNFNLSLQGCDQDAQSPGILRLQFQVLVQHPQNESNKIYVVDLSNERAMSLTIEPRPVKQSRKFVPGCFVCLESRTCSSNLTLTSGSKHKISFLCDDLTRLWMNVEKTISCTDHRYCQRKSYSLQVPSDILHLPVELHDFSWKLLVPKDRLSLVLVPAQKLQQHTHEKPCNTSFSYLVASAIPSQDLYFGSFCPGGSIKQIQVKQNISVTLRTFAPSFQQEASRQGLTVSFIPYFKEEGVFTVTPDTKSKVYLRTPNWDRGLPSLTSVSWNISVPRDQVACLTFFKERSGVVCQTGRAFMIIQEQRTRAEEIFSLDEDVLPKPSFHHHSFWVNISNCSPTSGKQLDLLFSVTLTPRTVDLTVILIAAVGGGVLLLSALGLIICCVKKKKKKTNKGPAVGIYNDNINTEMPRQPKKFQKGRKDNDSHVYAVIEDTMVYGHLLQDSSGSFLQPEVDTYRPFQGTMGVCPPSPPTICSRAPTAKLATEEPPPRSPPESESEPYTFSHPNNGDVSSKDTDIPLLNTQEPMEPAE
The assay is described as follows: laser confocal microscopy, HCC1806 cells, dye-labeled antibody. The source says:
The lysosomes were labeled with red fluorescence, and the relative position changes and colocalization of green fluorescence and red fluorescence in the cells were detected to determine whether the antibodies were colocalized with lysosomes after endocytosis into the cells.

The target of assay [2] is T1, human CDCP1 on tumor cells. The assay is described as follows: flow cytometry, MDA-MB-231 cells, 1.5 µg/ml. How it is done:
Flow cytometry was used to detect the binding capacity of antibody to tumor cells. MDA-MB-231 cells were subjected to digestion with 5 mM EDTA, centrifuged, and counted, the cells were resuspended with FACS buffer (PBS+2% FBS). Cell density was adjusted to 4×10⁵/ml, 50 μL (2×10⁴ tumor cells) were added per well, an Fc blocker (Human TruStain FcX™, Biolegend, 422302) was added for blocking at room temperature for 10 mins, then the antibody to be tested was added at a final concentration of 1.5 μg/ml. The mixture was incubated out at 4° C. for 30 mins, centrifuged and washed, a secondary antibody (PE anti-human IgG Fc Antibody, Biolegend, 410708) was added for incubation, and then detection was performed using a flow cytometer. Geo-MFI was used as the preliminary criterion for determining antibody-cell binding.

Assay [3] concerns the target T1, human CDCP1 on tumor cells. The assay is described as follows: cell-based or functional assay.
Assay [4] addresses T1, human CDCP1 on tumor cells. The assay is described as follows: cell-based or functional assay. The source holds these as a separate data set.
The target of a further assay is T2, HuCDCP1-C (human, UniProt Q9H5V8 30-667).
T2 construct: range 30-667; expressed in HEK-293T, purified by Fc/his tag; also called human CDCP1-C; full-length extracellular domain of human CDCP1; not shown: Fc or his tag
T2 sequence (looked up): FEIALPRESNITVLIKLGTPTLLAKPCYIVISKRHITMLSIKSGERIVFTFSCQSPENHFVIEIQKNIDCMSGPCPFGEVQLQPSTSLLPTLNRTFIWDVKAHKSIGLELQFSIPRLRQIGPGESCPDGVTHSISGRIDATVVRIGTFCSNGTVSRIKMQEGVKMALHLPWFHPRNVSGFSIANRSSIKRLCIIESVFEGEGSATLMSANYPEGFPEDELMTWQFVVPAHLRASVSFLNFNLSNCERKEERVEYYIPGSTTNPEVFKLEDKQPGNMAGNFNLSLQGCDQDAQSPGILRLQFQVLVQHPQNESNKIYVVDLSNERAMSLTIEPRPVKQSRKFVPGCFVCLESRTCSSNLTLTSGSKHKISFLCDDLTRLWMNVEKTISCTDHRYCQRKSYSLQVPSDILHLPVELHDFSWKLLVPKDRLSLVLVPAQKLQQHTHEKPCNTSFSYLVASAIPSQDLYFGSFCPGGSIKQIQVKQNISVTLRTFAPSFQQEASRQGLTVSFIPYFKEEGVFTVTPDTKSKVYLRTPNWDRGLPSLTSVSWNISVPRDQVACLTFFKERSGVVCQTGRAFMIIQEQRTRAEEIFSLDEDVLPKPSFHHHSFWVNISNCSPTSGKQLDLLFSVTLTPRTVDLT
The assay is described as follows: ELISA, coated antigen. How it is done: (§1) The candidate antibodies obtained from Example 6 were subjected to gene cloning, constructed into an expression vector for a small amount of expression in CHO cells, and purified with an Fc affinity column (AT Protein A Diamond Plus. No. AA402312). Antibody purity was analyzed by HPLC and determined by Nanodrop. High-throughput affinity assay was carried out for a small amount of antibodies by Caterra. […] At the same time, 2 μg/ml antigen human CDCP1-C and 2 μg/ml human CDCP1-B were used for coating, and the antigen-antibody binding capacity was tested by ELISA for verification.

Another assay addresses T3, HuCDCP1-B (human, UniProt Q9H5V8 343-667).
T3 construct: range 343-667; expressed in HEK-293T, purified by Fc/his tag; also called human CDCP1-B; membrane-proximal region of CDCP1; not shown: Fc or his tag
T3 sequence (looked up): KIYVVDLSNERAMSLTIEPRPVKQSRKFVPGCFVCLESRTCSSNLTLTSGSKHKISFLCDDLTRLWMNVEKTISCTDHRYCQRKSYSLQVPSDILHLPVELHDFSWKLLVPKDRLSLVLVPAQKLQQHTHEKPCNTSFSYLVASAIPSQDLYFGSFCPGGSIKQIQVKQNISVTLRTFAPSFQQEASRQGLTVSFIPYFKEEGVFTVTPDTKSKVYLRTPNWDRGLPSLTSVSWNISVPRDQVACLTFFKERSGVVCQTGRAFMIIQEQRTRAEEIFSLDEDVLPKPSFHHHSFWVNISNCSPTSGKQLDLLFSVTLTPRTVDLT
The assay is described as follows: ELISA, coated antigen. How it is done: as §1
(ELISA stands for enzyme-linked immunosorbent assay.)

For another assay, the target named is T4, huCDCP1-his (human, UniProt Q9H5V8 30-667, limits assumed).
T4 construct: also called human CDCP1 antigen; not shown: his tag
T4 sequence (looked up): T2 sequence (looked up)
The assay is described as follows: SPR (Caterra), antigen immobilized. How it is done: as §1

B1: 1CP-063 (antibody, V domains shown)
VH: EVNLKESGPELVKPGASVRISCKASGYTFTSYYIHWVKQRPGQGLEWIGWIYPGNVNSKYNEKFKGKVTLTADKSSITAYMQLSSLTSEDSAVYFCAREDYGHYYAMDYWGQGTTVTVSS
VL: DIVMTQSPSSMYASLGERVTITCKASQDIKSYLSWYQQKPWKSPKTLIYYATSLADGVPSRFSGSGSGQDYSLTISSLESDDTATYYCLQYGESPWTFGGGTKLEIK
notes: murine hybridoma mAb
Consider B1, for which the binding result in assay [1] was “binds”.

B2: SB8 (antibody, V domains shown)
VH: QVTLKESGPGILKPSQTLSLTCSFSGFSLSTSGVGVGWIRQPSGKGLEWLAHIWWDDEKYYNPSLKSHFTISKDTSRNQVFLKITSVDTADTATYYCVKEGDGMDYWGQGTSVTVSS
VL: QAVVTQESALTTSPGETVTLTCRSSTGAVATSNYANWVQEKPDHLFTGLIGGTNNRVPGVPARFSGSLIGDKAALTITGAQTEDEAIYFCALWYSNHWVFGGGTKLTVL
notes: single B cell antibody, expressed in CHO
In the case of B2, in assay [2], the binding result is reported as “binds”.

B3: 1CP-152-MMAE (antibody, human IgG1, kappa, V domains shown)
VH: EVQLVESGGGLVQPGRSLRLSCTTSGLTFTHYHMSWVRQAPGKGLEWVAIIRNKAYGYTTDYSASVRGRFTISRDDSKSILYLQMNSLKTEDTAVYYCVREGGYGYDGTFAYWGQGTLVTVSS
VL: DIQMTQSPSSLSASVGDRVTITCRASESVDNYGISFMNWFQQKPGQAPKLLIYAASNQGSGVPSRFSGSGSGTDFTLTISSMQPEDFATYYCQQSKEVPRTFGGGTKVEIKR
modifications: vc-MMAE coupled after reduction, sites not stated; DAR 4.5
For B3, the “IC50 (nM), killing of HCC1806 cells (120 h), CellTiter-Glo” value (from here on “IC50 (nM), killing of HCC1806 cells”) in assay [3] came out at 0.734 nM. Further, the “IC50 (nM), killing of HCT116 cells (120 h), CellTiter-Glo” value (from here on “IC50 (nM), killing of HCT116 cells”) in assay [4] stood at 1.27 nM.

B4: 1CP-065 (antibody, V domains shown)
VH: EVTLKESGAELVRPGALVKLSCKASGFNIKDYYMHWVKQRPEQGLEWIGWIDPENDNTIYDPKFQGKASITADTSSNTAYLQLSSLTSEDTAVYYCARFYGSYYYAMDYWGQGTTVTVSS
VL: DIVMTQSPKFMSTSVGDRVSITCKASQDVSTAVTWYQQKPGQSPKLLIYWASTRHTGVPDRFTGSGSGTDYTLTISSVQAEDLALYYCQQHYSTPYTFGGGTKLEIK
notes: murine hybridoma mAb
With B4, the binding result in assay [1] is “binds”.

B5: SB5 (antibody, V domains shown)
VH: QVQLRESGPGLVAPSQSLSITCTVSGFSLTDFGVNWVRQPPGKGLEWLGIIWANGRIEYNSALKSRLSISKDNSRSQVFLKLNSLQTDDTARYYCARDHDYDVEAMDYWGQGTSVTVSA
VL: QIVLTQSPAIKSASPGEKVTMTCSASSSVIYMHWYQQKSGSSPKRWIYDTSKLASGVPVRFSGSGSGTSYSLTISTMEAEDAATYYCQQWSSYPPTFGGGTKVEIK
notes: as for B2
Take B5: the results for the EC50 with HuCDCP1-C and with HuCDCP1-B were 413 pM and 208 pM, respectively. The Kd with huCDCP1-his was determined as 835 pM.

B6: 1CP-117-MMAE (antibody, human IgG1, kappa, V domains shown)
VH: QVQLVQSGSELKKPGASVKVSCKASGYTLTDFSMHWVRQAPGQGLEWMGWINTETGAPTYADDFKGRFVLSLDTSVSTAYLQISSLKAEDTAVYYCSRGRDYDPHFDYWGQGTLVTVSS
VL: EIVLTQSPATLSLSPGERATLSCRASQSISDFLHWYQQKPGQSPRLLIKYASQSISGIPARFSGSGSGSDFTLTISSVEPEDFAVYYCQSAHSFPYTFGQGTKLEIKR
modifications: vc-MMAE coupled after reduction, sites not stated; DAR 4.8
On to B6, for which the “IC50 (nM), killing of HCC1806 cells” value in assay [3] is 0.894 nM. Besides, the “IC50 (nM), killing of HCT116 cells” value in assay [4] worked out at 1.51 nM.

B7: 1CP-064 (antibody, V domains shown)
VH: EVKLVESGPGILQPSQTLSLTCSFSGFSLSTSGMGVGWIRQPSGKGLEWLAHIWWDDVKRYNPALKSRLTISKDTSSSQVFLKIASVDTADTATYYCARMGGKVPWFAYWGQGTTVTVSS
VL: DVVMTQTPASLAVSLGQRATISCRASESVDSYGNSFMHWYQQKPGQPPKLLIYLASNLESGVPARFSGSGSRTDFTLTIDPVEADDAATYYCQQNNEDPWTFGGGTKLEIK
notes: murine hybridoma mAb
Turning to B7, the binding result in assay [1] is listed as “binds”.

B8: 1CP-062 (antibody, V domains shown)
VH: EVKLVESGPGLVAPSQSLSITCTVSGFSLTTYGVHWVRQPPGKGLEWLVVIWSDGNTTYNSALKSRLSINKDNSKSQVFLKMNSLQTDDTAMYYCAKNYRNYDYAMDYWGQGTTVTVSS
VL: B7 VL with V2I, L54R, V62I, D80N, A87V, N95S, W100Y
notes: murine hybridoma mAb
As to B8, the binding result in assay [1] was “binds”.

B9: SB9 (antibody, V domains shown)
VH: DVKLVESGGGLVKPGGSLKLSCAASGFTFSSFTMSWVRQTPEKRLEWVATISSSGSYTYYPDSVKGRFTISRDNAKNTLYLQMSSLKSEDTAMYYCTSPDYYGRSYGYFDYWGQGTTLTVSS
VL: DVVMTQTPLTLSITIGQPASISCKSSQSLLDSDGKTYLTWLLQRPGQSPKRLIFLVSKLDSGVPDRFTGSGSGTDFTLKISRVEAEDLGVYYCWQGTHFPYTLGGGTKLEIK
notes: as for B2
Regarding B9, the binding result in assay [2] is on record as “binds”.

B10: 1CP-125-MMAE (antibody, human IgG1, kappa, V domains shown)
VH: QVQLVQSGAEVKKPGASVKVSCKASGYNFISYWLHWVRQAPGQGLEWMGGIYPGNTDTTYNQKFKGRVTMTADTSTSTVYMELSSLRSEDTAVYYCIRYDYDRGMDYWGQGTLVTVSS
VL: DIQMTQSPSSLSASVGDRVTITCRASEDIYYRLAWYQQKPGKAPKLLISGATALETGVPSRFSGSGSGKDYTFTISSLQPEDIATYYCQHYWNIPWTFGQGTKVEIKR
modifications: vc-MMAE coupled after reduction, sites not stated; DAR 4.3
As to B10, the “IC50 (nM), killing of HCC1806 cells” value in assay [3] amounted to 0.272 nM. Further, the “IC50 (nM), killing of HCT116 cells” value in assay [4] stood at 0.668 nM.
